Publication PMC4454188

Experiments:
[1] = biological target: Strep-3xFLAG-DotJ (E. coli) (L. pneumophila); experiment: SEC
[2] = biological target: DotIC, C-terminal periplasmic domain of DotI (residues 73-212) (L. pneumophila); experiment: SEC-MALS
[3] = biological target: DotIC, C-terminal periplasmic domain of DotI (residues 73-212) (L. pneumophila); experiment: crystal structure
[4] = biological target: His-TraM (R64 TraM, full length) (plasmid R64); experiment: SEC-MALS

Substance: DotI (produced in E. coli with Strep-3xFLAG-DotJ) (natural protein)
- stoichiometry N (DotI per DotJ) [1]: 1.87

Substance: DotIC, C-terminal periplasmic domain of DotI (residues 73-212) (domain or fragment)
- stoichiometry N [2]: 16
- stoichiometry N (subunits in a ring (two rings stacked)) [3]: 8

Substance: His-TraM (R64 TraM, full length) (natural protein)
- stoichiometry N [4]: 6
